Reference: the DeepSol protein solubility set

experiment: soluble on expression in E. coli; label from the status in PepcDB or PDB records

Row | Sequence | soluble on expression in E. coli
1 | MTIDTELTNGSSESVPFVFIGGGNMAAAIIKGCQNKGFTPKSNIVIGVQTEKSAEKWRQLGYKNVFTNTLEMLERYSTAIYVICVKPQVFEEVVSSWPVNSRPEFIISVMAGVPLKVLNAKLPFVSGNTTIVRLMPNVASSIGAGASTMCYEKNEKIMNQDSHIELAREFAECVGTVELIPERCFNPAMAIGGSSPAWTFMYIESLADGAVAQGLGRAEAKRLAAQAVLGAAQMVLNSNSGFDIETQHFGSLKDMVCSPGGTTIEGVRALEKNGFRYAVMEAVVAASTKADEMAKSLAK | soluble
2 | MNRRLELYYTRQLLVISKYCQDQTKEIVLPTVGQNIGDSWITDIFVKLREKLVKYTTQVSRPLATKVVQDSQKEVDAQIAEHTKSIIGVDLTPFYRASDIQDVVDTNIAANVALIKSIPNQYVDKLEALVMNAFQTGQTNEDLAKAIAQLGQSTDSRARLIAADQMGKVNGQINKARQLSMGVETYVWQTAKDERVRKDHQHKQGKTFRWDDPPTGGHPGEPIRCRCTALPNYEDILVD | not soluble
3 | MESFRFDPAGNLLDNAPAPDGHQNDSLLGNLLSQYAGRHYRYDSRGNLVEKRVNGSLTRLEWDSHSRLSRLIAPDGQRTDYHYDPLGRRIAKISQGQATLYGWDGDVLAFETRDEEAVHYLFEPDSFVPLAQVHTDAIRGVKVPAWSQHHPYDPDKDPLRQPAPEPEAPKAVYYYHTDHLGTPQALTDEQGLLALEMDYQAWGQAREVIADAAGKAGIRNPFRFQGQYHDDESGLHYNRHRYYDPEIGRFISRDPIGLKGGYNLFAYAPNTIEWVDPFGLTKLRETDPKARSLSNVQTRCWYLREESKIGYQIDCTKPIKQQARQAARLRNEARIRARLLMADREKAIALHQSDPNLTFKELMALKENKKGLTGKDAYQDIVDSASKSRQSVNKALLEGVDCDKVLEGILEHHHHHH | soluble
4 | MSLKNTGYILALCLTASGHVLAHDVWITGKQAENNVTAEIGYGHNFPSKGTIPDRRDFFENPRLYNGKETITLKPASTDYVYKTESASKDNGYVLSTYMKPGYWSRTSSGWKPVSREGRNDVAYCEFVTKYAKSFIPGEQQMPAQLYQSPTGHELEIIPLSDISRFSENVKLKVLYKTSPLAGAIMELDSVSYLTSSRHTHAVEHKHPVHKAELTFVTNEDGIVTVPSLHIGQWLAKVQNKKSFQDKSLCDETVDVATLSFSRNEGHHHHHH | soluble
5 | MGVMNKGDSVEKCYMCDAEGNTKEHVPPKCIFPEAKDVPSGDNYKKNLITVRSCEKHNTAKSKDDVYLLFFLAANVVSNDLAQTQFGTKIMRAVNRTPHVFAQFAKKNTPVTLKGENGELIHTAAIEIDRARFDAAIEHISHALHYHKYGETFIGDIQVITSGLVDLSSIDSVEVNDRIQNFGQMVDELLADVEPEGDNPEVFTYKVLKTDEPHQVIIQMNFYGGFKIVSIMKYS | not soluble
6 | SLAQIPRPEIMDEDQLMKEVLDKFVNCHEQTYEEFLSTFTHLSKEDNVAKWGAHGTDSSENIFSTVKWNHKTESNGCHFRNTTIFLHTSSEHSEEDQIVIDEGHKVGSSFQGDMTRAGKVKVDNFLDLEDVDMEEESKPQMNKDCLLLPGEVEQDISTSVPSYDPSVDLPLTSEVRPKPAVGRTQKQTEEILGDEVQPFFLDEEFDYDNVTLTPKFTAGEIATIQELSKQKRVGSGTNVCELHD | soluble
7 | MGSDKIHHHHHHMTDITVAETSAPDTIKAFEERLMQVSDTLPKRLKQCADYVGANKDRIAVSTVAEMAEGAGVQPSAFMRFCQIFGFSGFSEMQKLFRDSLVGGWPDYSTRLHHLRETASGSPSALLAEFVEAGRVSLEGLLQTVDPQLLEQAVACLSTAGMIHIVGLRRSFPVASYIAYAFEKMAVPAMLHSGVGKLESQHAIRDGDVVLAITFAPYSTETLDLVEQVSARGISVVAITDTVVNPLRKLGTITLSVAEVDFGAFRSLSATLCLAIALSVAVGTARQQD | not soluble
8 | ARIMKAIFVLNAAPKDNTWYAGGKLGWSQYHDTGFYGNGFQNNNGPTRNDQLGAGAFGGYQVNPYLGFEMGYDWLGRMAYKGSVDNGAFKAQGVQLTAKLGYPITDDLDIYTRLGGMVWRADSKGNYASTGVSRSEHDTGVSPVFAGGVEWAVTRDIATRLEYQWVNNIGDAGTVGTRPDNGMLSLGVSYRFGQEDAAPVVAPAPAPAPEHHHHHH | soluble
